Experimental data: patent US20110158985A1 (published 2011)
“And” between values parts separate entries of the source, which are not always exact repeats. Identical values can stand only once. Like-named read-outs stand apart in the source and are kept apart here.

Key:
[1] = molecular target: T1, recombinant C-terminally truncated RSV (A2 strain) F protein (RSV (A2 strain), UniProt P03420 26-524); assay: SPR (BIAcore), Fab over immobilised F
T1 construct: extracellular domain; also called truncated F protein; extracellular domain of the F protein from RSV A2

[2] = molecular target: RSV F protein (purified) (respiratory syncytial virus); assay: SPR (BIAcore), F protein immobilised
[3] = molecular target: T2, F protein of RSV (Long strain) (RSV (Long strain), UniProt P12568 26-574); assay: cell-based or functional assay
[4] = molecular target: T2, F protein of RSV (Long strain); assay: cell-based or functional assay; remark: listed apart in the source
[5] = molecular target: T2, F protein of RSV (Long strain); assay: cell-based or functional assay; remark: listed apart in the source
[6] = molecular target: T1, recombinant C-terminally truncated RSV …; assay: SPR (BIAcore), Fab over immobilised F; remark: listed apart in the source

B1: A3e2 Fab (Fab, V domains shown)
VH: QVTLRESGPALVKPTQTLTLTCTFSGFSLSTAGMSVGWIRQPPGKALEWLADIWWGDKGHYNPSLKDRLTISKDTSKNQVVLKVTNMDPADTATYYCARDMIFNWYFDVWGQGTTVTVSS
VL: DIQMTQSPSTLSASVGDRVTITCSASSSVGYMHWYQQKPGKAPKLLIYDTFYLHSGVPSRFSGSGSGTEFTLTISSLQPDDFATYYCFQGSGYPFTFGGGTKVEIK
- Kd [1]: 157 pM
- koff [1]: 9.4e-05 s⁻¹
- kon [1]: 599000 M⁻¹ s⁻¹

B2: DG (aka D95/G93) Fab (Fab, V domains shown)
VH: QVTLRESGPALVKPTQTLTLTCTFSGFSLSTAGMSVGWIRQPPGKALEWLADIWWDDKKDYNPSLKSRLTISKDTSKNQVVLKVTNMDPADTATYYCARDMITNFYFDVWGQGTTVTVSS
VL: DIQMTQSPSTLSASVGDRVTITCSASSSVGYMHWYQQKPGKAPKLLIYDTFKLASGVPSRFSGSGSGTEFTLTISSLQPDDFATYYCFQGSGYPFTFGGGTKVEIK
- koff [2]: 0.000167 s⁻¹ and 0.000444 s⁻¹

B3: Y10H6 Fab (Fab, V domains shown)
VH: QVTLRESGPALVKPTQTLTLTCTFSGFSLSTAGMSVGWIRQPPGKALEWLADIWWDDKKDYNPSLKSRLTISKDTSKNQVVLKVTNMDPADTATYYCARDMIFNWYFDVWGQGTTVTVSS
VL: DIQMTQSPSTLSASVGDRVTITCSASSSVGYMHWYQQKPGKAPKLLIYDTRYLSSGVPSRFSGSGSGTEFTLTISSLQPDDFATYYCFQGSGYPFTFGGGTKVEIK
- koff [2]: 0.000462 s⁻¹
- kon [2]: 757000 M⁻¹ s⁻¹

B4: M3H9 Fab (Fab, V domains shown)
VH: QVTLRESGPALVKPTQTLTLTCTFSGFSLSTAGMSVGWIRQPPGKALEWLADIWWDDKKDYNPSLKSRLTISKDTSKNQVVLKVTNMDPADTATYYCARDMIFNWYFDVWGQGTTVTVSS
VL: DIQMTQSPSTLSASVGDRVTITCSASSSVGYMHWYQQKPGKAPKLLIYDTYKQTSGVPSRFSGSGSGTEFTLTISSLQPDDFATYYCFQGSGYPFTFGGGTKVEIK
- koff [2]: 0.000338 s⁻¹
- kon [2]: 605000 M⁻¹ s⁻¹

B5: A17d4(1) Fab (Fab, V domains shown)
VH: QVTLRESGPALVKPTQTLTLTCTFSGFSLSTAGMSVGWIRQPPGKALEWLADIWWDGKKSYNPSLKDRLTISKDTSKNQVVLKVTNMDPADTATYYCARDMIFNFYFDVWGQGTTVTVSS
VL: DIQMTQSPSTLSASVGDRVTITCLPSSRVGYMHWYQQKPGKAPKLLIYDTMYQSSGVPSRFSGSGSGTEFTLTISSLQPDDFATYYCFQGSGYPFTFGGGTKVEIK
- Mean IC50 (Control) [3]: 0.0171 µg/mL
- Mean IC50 (Curve) [3]: 0.0179 µg/mL
- Microneutralization IC50, Fab [4]: 0.0179 µg/ml and 0.36 nM
- Kd [1]: 111 pM
- koff [1]: 5.9e-05 s⁻¹
- kon [1]: 531000 M⁻¹ s⁻¹

B6: L1-7E5 Fab (Fab, V domains shown)
VH: QVTLRESGPALVKPTQTLTLTCTFSGFSLSTAGMSVGWIRQPPGKALEWLADIWWDDKKDYNPSLKSRLTISKDTSKNQVVLKVTNMDPADTATYYCARDMITNFYFDVWGQGTTVTVSS
VL: DIQMTQSPSTLSASVGDRVTITCSASSRVGYMHWYQQKPGKAPKLLIYDTFKLASGVPSRFSGSGSGTEFTLTISSLQPDDFATYYCFQGSGYPFTFGGGTKVEIK
- koff [2]: 0.000192 s⁻¹ and 0.000331 s⁻¹ and 0.000229 s⁻¹

B7: P12f4 Fab (Fab, V domains shown)
VH: QVTLRESGPALVKPTQTLTLTCTFSGFSLSTPGMSVGWIRQPPGKALEWLADIWWDGKKHYNPSLKDRLTISKDTSKNQVVLKVTNMDPADTATYYCARDMIFNFYFDVWGQGTTVTVSS
VL: DIQMTQSPSTLSASVGDRVTITCSLSSRVGYMHWYQQKPGKAPKLLIYDTRGLPSGVPSRFSGSGSGTEFTLTISSLQPDDFATYYCFQGSGYPFTFGGGTKVEIK
- koff [2]: 0.000299 s⁻¹
- kon [2]: 527000 M⁻¹ s⁻¹

B8: 6H8 Fab (Fab, V domains shown)
VH: QVTLRESGPALVKPTQTLTLTCTFSGFSLSTAGMSVGWIRQPPGKALEWLADIWWDDKKDYNPSLKSRLTISKDTSKNQVVLKVTNMDPADTATYYCARDMITNFYFDVWGQGTTVTVSS
VL: DIQMTQSPSTLSASVGDRVTITCSASSSVGYMHWYQQKPGKAPKLLIYDTFKLTSGVPSRFSGSGSGTEFTLTISSLQPDDFATYYCFQGSGYPFTFGGGTKVEIK
- koff [2]: 0.000178 s⁻¹ and 0.000473 s⁻¹
- kon [2]: 314000 M⁻¹ s⁻¹ and 444000 M⁻¹ s⁻¹

B9: H3-3F4 Fab (Fab, V domains shown)
VH: QVTLRESGPALVKPTQTLTLTCTFSGFSLSTAGMSVGWIRQPPGKALEWLADIWWDDKKDYNPSLKSRLTISKDTSKNQVVLKVTNMDPADTATYYCARDMIFNWYFDVWGQGTTVTVSS
VL: DIQMTQSPSTLSASVGDRVTITCSASSSVGYMHWYQQKPGKAPKLLIYDTFKLASGVPSRFSGSGSGTEFTLTISSLQPDDFATYYCFQGSGYPFTFGGGTKVEIK
- koff [2]: 0.000445 s⁻¹ and 0.000402 s⁻¹

B10: G93W Fab (Fab, name in Kabat numbering, V domains shown)
VH: QVTLRESGPALVKPTQTLTLTCTFSGFSLSTSGMSVGWIRQPPGKALEWLADIWWDDKKDYNPSLKSRLTISKDTSKNQVVLKVTNMDPADTATYYCARSMITNWYFDVWGQGTTVTVSS
VL: DIQMTQSPSTLSASVGDRVTITCSASSSVGYMHWYQQKPGKAPKLLIYDTSKLASGVPSRFSGSGSGTEFTLTISSLQPDDFATYYCFQGSWYPFTFGGGTKVEIK
- Microneutralization IC50, Fab [5]: 6.57 µg/ml and 131 nM
- Kd [6]: 930 pM
- koff [6]: 0.00014 s⁻¹
- kon [6]: 150000 M⁻¹ s⁻¹

B11: A14a4 Fab (Fab, V domains shown)
VH: QVTLRESGPALVKPTQTLTLTCTFSGFSLSTAGMSVGWIRQPPGKALEWLADIWWDDKKSYNPSLKDRLTISKDTSKNQVVLKVTNMDPADTATYYCARDMITNWYFDVWGQGTTVTVSS
VL: DIQMTQSPSTLSASVGDRVTITCLLSSRVGYMHWYQQKPGKAPKLLIYDTYYQTSGVPSRFSGSGSGTEFTLTISSLQPDDFATYYCFQGSGYPFTFGGGTKVEIK
- Microneutralization IC50, Fab [4]: > 0.4 µg/ml and > 8 nM
- Kd [1]: 723 pM
- koff [1]: 0.00024 s⁻¹
- kon [1]: 332000 M⁻¹ s⁻¹

B12: G93Y Fab (Fab, name in Kabat numbering, V domains shown)
VH: QVTLRESGPALVKPTQTLTLTCTFSGFSLSTSGMSVGWIRQPPGKALEWLADIWWDDKKDYNPSLKSRLTISKDTSKNQVVLKVTNMDPADTATYYCARSMITNWYFDVWGQGTTVTVSS
VL: DIQMTQSPSTLSASVGDRVTITCSASSSVGYMHWYQQKPGKAPKLLIYDTSKLASGVPSRFSGSGSGTEFTLTISSLQPDDFATYYCFQGSYYPFTFGGGTKVEIK
- Microneutralization IC50, Fab [5]: 6.26 µg/ml and 125 nM
- Kd [6]: 940 pM
- koff [6]: 0.000153 s⁻¹
- kon [6]: 162000 M⁻¹ s⁻¹

B13: A16b4 Fab (Fab, V domains shown)
VH: QVTLRESGPALVKPTQTLTLTCTFSGFSLSTAGMSVGWIRQPPGKALEWLADIWWDDKKHYNPSLKDRLTISKDTSKNQVVLKVTNMDPADTATYYCARDMIFNWYFDVWGQGTTVTVSS
VL: DIQMTQSPSTLSASVGDRVTITCLLSSRVGYMHWYQQKPGKAPKLLIYDTMYQASGVPSRFSGSGSGTEFTLTISSLQPDDFATYYCFQGSGYPFTFGGGTKVEIK
- Kd [1]: 214 pM
- koff [1]: 0.000105 s⁻¹
- kon [1]: 490000 M⁻¹ s⁻¹

B14: palivizumab Fab (papain cleavage of palivizumab IgG) (Fab, V domains shown)
VH: QVTLRESGPALVKPTQTLTLTCTFSGFSLSTSGMSVGWIRQPPGKALEWLADIWWDDKKDYNPSLKSRLTISKDTSKNQVVLKVTNMDPADTATYYCARSMITNWYFDVWGAGTTVTVSS
VL: DIQMTQSPSTLSASVGDRVTITCKCQLSVGYMHWYQQKPGKAPKLLIYDTSKLASGVPSRFSGSGSGTEFTLTISSLQPDDFATYYCFQGSGYPFTFGGGTKLEIK
notes: also called Palivizumab^a
- Kd [6]: 6070 pM

B15: A4b4 Fab (Fab, V domains shown)
VH: QVTLRESGPALVKPTQTLTLTCTFSGFSLSTAGMSVGWIRQPPGKALEWLADIWWDDKKHYNPSLKDRLTISKDTSKNQVVLKVTNMDPADTATYYCARDMIFNFYFDVWGQGTTVTVSS
VL: DIQMTQSPSTLSASVGDRVTITCSASSRVGYMHWYQQKPGKAPKLLIYDTFFLDSGVPSRFSGSGSGTEFTLTISSLQPDDFATYYCFQGSGYPFTFGGGTKVEIK
- Mean IC50 (Control) [3]: 0.0411 µg/mL
- Mean IC50 (Curve) [3]: 0.0414 µg/mL
- Microneutralization IC50, Fab [4]: 0.414 µg/ml and 0.83 nM
- Kd [1]: 86 pM
- koff [1]: 5.2e-05 s⁻¹
- kon [1]: 604000 M⁻¹ s⁻¹

B16: A8c7 Fab (Fab, V domains shown)
VH: QVTLRESGPALVKPTQTLTLTCTFSGFSLSTAGMSVGWIRQPPGKALEWLADIWWDDKKSYNPSLKDRLTISKDTSKNQVVLKVTNMDPADTATYYCARDMIFNWYFDVWGQGTTVTVSS
VL: DIQMTQSPSTLSASVGDRVTITCSPSSRVGYMHWYQQKPGKAPKLLIYDTRYQSSGVPSRFSGSGSGTEFTLTISSLQPDDFATYYCFQGSGYPFTFGGGTKVEIK
- Mean IC50 (Control) [3]: 0.157 µg/mL
- Mean IC50 (Curve) [3]: 0.177 µg/mL
- Microneutralization IC50, Fab [4]: 0.177 µg/ml and 3.54 nM
- Kd [1]: 464 pM
- koff [1]: 0.0003 s⁻¹
- kon [1]: 647000 M⁻¹ s⁻¹

B17: A17h4 Fab (Fab, V domains shown)
VH: QVTLRESGPALVKPTQTLTLTCTFSGFSLSTAGMSVGWIRQPPGKALEWLADIWWDGKKHYNPSLKDRLTISKDTSKNQVVLKVTNMDPADTATYYCARDMIFNWYFDVWGQGTTVTVSS
VL: DIQMTQSPSTLSASVGDRVTITCSPSSSVGYMHWYQQKPGKAPKLLIYDTYYLASGVPSRFSGSGSGTEFTLTISSLQPDDFATYYCFQGSGYPFTFGGGTKVEIK
- Kd [1]: 202 pM
- koff [1]: 0.000105 s⁻¹
- kon [1]: 519000 M⁻¹ s⁻¹

B18: A17b5 Fab (Fab, V domains shown)
VH: QVTLRESGPALVKPTQTLTLTCTFSGFSLSTAGMSVGWIRQPPGKALEWLADIWWDDKKHYNPSLKDRLTISKDTSKNQVVLKVTNMDPADTATYYCARDMIFNWYFDVWGQGTTVTVSS
VL: DIQMTQSPSTLSASVGDRVTITCSLSSRVGYMHWYQQKPGKAPKLLIYDTYYLPSGVPSRFSGSGSGTEFTLTISSLQPDDFATYYCFQGSGYPFTFGGGTKVEIK
- Microneutralization IC50, Fab [4]: 0.406 µg/ml and 0.92 nM
- Kd [1]: 124 pM
- koff [1]: 7.3e-05 s⁻¹
- kon [1]: 590000 M⁻¹ s⁻¹
